Reference: patent publication US20220204580A1 (AstraZeneca / MedImmune, published 2022)
Numbered stars: 1 amine (or outer) side, 2 acyl side, 3 side chain; on linkers, the order of the positions; unused ones are H or OH. Bridge positions count the residues as written; N and C are the ends. Square brackets hold non-standard residues; d marks the D form. Side chains are listed from the residue outwards. Ends that are not written are not given here. * marks the point of attachment. C18 diacid = O=C(O)CCCCCCCCCCCCCCCCC(=O)*; γGlu = O=C(O)[C@H](CCC(=O)[*:2])N[*:1]; Aib = CC(C)(N)C(=O)O

B1: Peptide 91 (SEQ ID NO: 91) (peptide)
peptide: K([γGlu-γGlu-C18 diacid])CNTATCATQRLANFLVHSS[Aib]NFGPILPPTNVGS[Aib]TY-NH2
modifications: disulfide 2-7; N-terminus assumed
SMILES: CC[C@H](C)[C@H](NC(=O)[C@@H]1CCCN1C(=O)CNC(=O)[C@H](Cc1ccccc1)NC(=O)[C@H](CC(N)=O)NC(=O)C(C)(C)NC(=O)[C@H](CO)NC(=O)[C@H](CO)NC(=O)[C@H](Cc1c[nH]cn1)NC(=O)[C@@H](NC(=O)[C@H](CC(C)C)NC(=O)[C@H](Cc1ccccc1)NC(=O)[C@H](CC(N)=O)NC(=O)[C@H](C)NC(=O)[C@H](CC(C)C)NC(=O)[C@H](CCCNC(=N)N)NC(=O)[C@H](CCC(N)=O)NC(=O)[C@@H](NC(=O)[C@H](C)NC(=O)[C@@H]1CSSC[C@H](NC(=O)[C@@H](N)CCCCNC(=O)CC[C@H](NC(=O)CC[C@H](NC(=O)CCCCCCCCCCCCCCCCC(=O)O)C(=O)O)C(=O)O)C(=O)N[C@@H](CC(N)=O)C(=O)N[C@@H]([C@@H](C)O)C(=O)N[C@@H](C)C(=O)N[C@@H]([C@@H](C)O)C(=O)N1)[C@@H](C)O)C(C)C)C(=O)N[C@@H](CC(C)C)C(=O)N1CCC[C@H]1C(=O)N1CCC[C@H]1C(=O)N[C@H](C(=O)N[C@@H](CC(N)=O)C(=O)N[C@H](C(=O)NCC(=O)N[C@@H](CO)C(=O)NC(C)(C)C(=O)N[C@H](C(=O)N[C@@H](Cc1ccc(O)cc1)C(N)=O)[C@@H](C)O)C(C)C)[C@@H](C)O
B2: Peptide 92 (SEQ ID NO: 92) (peptide)
peptide: K([γGlu-γGlu-C18 diacid])CNTATCATQRLANFLRHSS[Aib]NFGPILPPTNVGS[Aib]TY-NH2
modifications: disulfide 2-7; N-terminus assumed
SMILES: CC[C@H](C)[C@H](NC(=O)[C@@H]1CCCN1C(=O)CNC(=O)[C@H](Cc1ccccc1)NC(=O)[C@H](CC(N)=O)NC(=O)C(C)(C)NC(=O)[C@H](CO)NC(=O)[C@H](CO)NC(=O)[C@H](Cc1c[nH]cn1)NC(=O)[C@H](CCCNC(=N)N)NC(=O)[C@H](CC(C)C)NC(=O)[C@H](Cc1ccccc1)NC(=O)[C@H](CC(N)=O)NC(=O)[C@H](C)NC(=O)[C@H](CC(C)C)NC(=O)[C@H](CCCNC(=N)N)NC(=O)[C@H](CCC(N)=O)NC(=O)[C@@H](NC(=O)[C@H](C)NC(=O)[C@@H]1CSSC[C@H](NC(=O)[C@@H](N)CCCCNC(=O)CC[C@H](NC(=O)CC[C@H](NC(=O)CCCCCCCCCCCCCCCCC(=O)O)C(=O)O)C(=O)O)C(=O)N[C@@H](CC(N)=O)C(=O)N[C@@H]([C@@H](C)O)C(=O)N[C@@H](C)C(=O)N[C@@H]([C@@H](C)O)C(=O)N1)[C@@H](C)O)C(=O)N[C@@H](CC(C)C)C(=O)N1CCC[C@H]1C(=O)N1CCC[C@H]1C(=O)N[C@H](C(=O)N[C@@H](CC(N)=O)C(=O)N[C@H](C(=O)NCC(=O)N[C@@H](CO)C(=O)NC(C)(C)C(=O)N[C@H](C(=O)N[C@@H](Cc1ccc(O)cc1)C(N)=O)[C@@H](C)O)C(C)C)[C@@H](C)O
B3: Peptide 90 (SEQ ID NO: 90) (peptide)
peptide: K([γGlu-γGlu-C18 diacid])CNTATCATQRLANFLRHSS[Aib]NFGPILPPT[Aib]VGSNTY-NH2
modifications: disulfide 2-7; N-terminus assumed
SMILES: CC[C@H](C)[C@H](NC(=O)[C@@H]1CCCN1C(=O)CNC(=O)[C@H](Cc1ccccc1)NC(=O)[C@H](CC(N)=O)NC(=O)C(C)(C)NC(=O)[C@H](CO)NC(=O)[C@H](CO)NC(=O)[C@H](Cc1c[nH]cn1)NC(=O)[C@H](CCCNC(=N)N)NC(=O)[C@H](CC(C)C)NC(=O)[C@H](Cc1ccccc1)NC(=O)[C@H](CC(N)=O)NC(=O)[C@H](C)NC(=O)[C@H](CC(C)C)NC(=O)[C@H](CCCNC(=N)N)NC(=O)[C@H](CCC(N)=O)NC(=O)[C@@H](NC(=O)[C@H](C)NC(=O)[C@@H]1CSSC[C@H](NC(=O)[C@@H](N)CCCCNC(=O)CC[C@H](NC(=O)CC[C@H](NC(=O)CCCCCCCCCCCCCCCCC(=O)O)C(=O)O)C(=O)O)C(=O)N[C@@H](CC(N)=O)C(=O)N[C@@H]([C@@H](C)O)C(=O)N[C@@H](C)C(=O)N[C@@H]([C@@H](C)O)C(=O)N1)[C@@H](C)O)C(=O)N[C@@H](CC(C)C)C(=O)N1CCC[C@H]1C(=O)N1CCC[C@H]1C(=O)N[C@H](C(=O)NC(C)(C)C(=O)N[C@H](C(=O)NCC(=O)N[C@@H](CO)C(=O)N[C@@H](CC(N)=O)C(=O)N[C@H](C(=O)N[C@@H](Cc1ccc(O)cc1)C(N)=O)[C@@H](C)O)C(C)C)[C@@H](C)O
B4: Peptide 96 (SEQ ID NO: 96) (peptide)
peptide: K([γGlu-C18 diacid])KCNTATCATQRLANFL[Aib]HSSNNFGPIL[Aib]PTNVGSNTY-NH2
modifications: disulfide 3-8; N-terminus assumed
SMILES: CC[C@H](C)[C@H](NC(=O)[C@@H]1CCCN1C(=O)CNC(=O)[C@H](Cc1ccccc1)NC(=O)[C@H](CC(N)=O)NC(=O)[C@H](CC(N)=O)NC(=O)[C@H](CO)NC(=O)[C@H](CO)NC(=O)[C@H](Cc1c[nH]cn1)NC(=O)C(C)(C)NC(=O)[C@H](CC(C)C)NC(=O)[C@H](Cc1ccccc1)NC(=O)[C@H](CC(N)=O)NC(=O)[C@H](C)NC(=O)[C@H](CC(C)C)NC(=O)[C@H](CCCNC(=N)N)NC(=O)[C@H](CCC(N)=O)NC(=O)[C@@H](NC(=O)[C@H](C)NC(=O)[C@@H]1CSSC[C@H](NC(=O)[C@H](CCCCN)NC(=O)[C@@H](N)CCCCNC(=O)CC[C@H](NC(=O)CCCCCCCCCCCCCCCCC(=O)O)C(=O)O)C(=O)N[C@@H](CC(N)=O)C(=O)N[C@@H]([C@@H](C)O)C(=O)N[C@@H](C)C(=O)N[C@@H]([C@@H](C)O)C(=O)N1)[C@@H](C)O)C(=O)N[C@@H](CC(C)C)C(=O)NC(C)(C)C(=O)N1CCC[C@H]1C(=O)N[C@H](C(=O)N[C@@H](CC(N)=O)C(=O)N[C@H](C(=O)NCC(=O)N[C@@H](CO)C(=O)N[C@@H](CC(N)=O)C(=O)N[C@H](C(=O)N[C@@H](Cc1ccc(O)cc1)C(N)=O)[C@@H](C)O)C(C)C)[C@@H](C)O
B5: Peptide 95 (SEQ ID NO: 95) (peptide)
peptide: K([γGlu-C18 diacid])KCNTATCATQRLANFL[Aib]HSSNNFGPI[Aib]PPTNVGSNTY-NH2
modifications: disulfide 3-8; N-terminus assumed
SMILES: CC[C@H](C)[C@H](NC(=O)[C@@H]1CCCN1C(=O)CNC(=O)[C@H](Cc1ccccc1)NC(=O)[C@H](CC(N)=O)NC(=O)[C@H](CC(N)=O)NC(=O)[C@H](CO)NC(=O)[C@H](CO)NC(=O)[C@H](Cc1c[nH]cn1)NC(=O)C(C)(C)NC(=O)[C@H](CC(C)C)NC(=O)[C@H](Cc1ccccc1)NC(=O)[C@H](CC(N)=O)NC(=O)[C@H](C)NC(=O)[C@H](CC(C)C)NC(=O)[C@H](CCCNC(=N)N)NC(=O)[C@H](CCC(N)=O)NC(=O)[C@@H](NC(=O)[C@H](C)NC(=O)[C@@H]1CSSC[C@H](NC(=O)[C@H](CCCCN)NC(=O)[C@@H](N)CCCCNC(=O)CC[C@H](NC(=O)CCCCCCCCCCCCCCCCC(=O)O)C(=O)O)C(=O)N[C@@H](CC(N)=O)C(=O)N[C@@H]([C@@H](C)O)C(=O)N[C@@H](C)C(=O)N[C@@H]([C@@H](C)O)C(=O)N1)[C@@H](C)O)C(=O)NC(C)(C)C(=O)N1CCC[C@H]1C(=O)N1CCC[C@H]1C(=O)N[C@H](C(=O)N[C@@H](CC(N)=O)C(=O)N[C@H](C(=O)NCC(=O)N[C@@H](CO)C(=O)N[C@@H](CC(N)=O)C(=O)N[C@H](C(=O)N[C@@H](Cc1ccc(O)cc1)C(N)=O)[C@@H](C)O)C(C)C)[C@@H](C)O
B6: Peptide 94 (SEQ ID NO: 94) (peptide)
peptide: K([γGlu-C18 diacid])KCNTATCATQRLANFL[Aib]HSSNNFGP[Aib]LPPTNVGSNTY-NH2
modifications: disulfide 3-8; N-terminus assumed
SMILES: CC(C)C[C@H](NC(=O)[C@H](CCCNC(=N)N)NC(=O)[C@H](CCC(N)=O)NC(=O)[C@@H](NC(=O)[C@H](C)NC(=O)[C@@H]1CSSC[C@H](NC(=O)[C@H](CCCCN)NC(=O)[C@@H](N)CCCCNC(=O)CC[C@H](NC(=O)CCCCCCCCCCCCCCCCC(=O)O)C(=O)O)C(=O)N[C@@H](CC(N)=O)C(=O)N[C@@H]([C@@H](C)O)C(=O)N[C@@H](C)C(=O)N[C@@H]([C@@H](C)O)C(=O)N1)[C@@H](C)O)C(=O)N[C@@H](C)C(=O)N[C@@H](CC(N)=O)C(=O)N[C@@H](Cc1ccccc1)C(=O)N[C@@H](CC(C)C)C(=O)NC(C)(C)C(=O)N[C@@H](Cc1c[nH]cn1)C(=O)N[C@@H](CO)C(=O)N[C@@H](CO)C(=O)N[C@@H](CC(N)=O)C(=O)N[C@@H](CC(N)=O)C(=O)N[C@@H](Cc1ccccc1)C(=O)NCC(=O)N1CCC[C@H]1C(=O)NC(C)(C)C(=O)N[C@@H](CC(C)C)C(=O)N1CCC[C@H]1C(=O)N1CCC[C@H]1C(=O)N[C@H](C(=O)N[C@@H](CC(N)=O)C(=O)N[C@H](C(=O)NCC(=O)N[C@@H](CO)C(=O)N[C@@H](CC(N)=O)C(=O)N[C@H](C(=O)N[C@@H](Cc1ccc(O)cc1)C(N)=O)[C@@H](C)O)C(C)C)[C@@H](C)O

molecular target: T1, human calcitonin receptor (human, UniProt P30988 25-474); assay: cell-based or functional assay
T1 sequence (looked up): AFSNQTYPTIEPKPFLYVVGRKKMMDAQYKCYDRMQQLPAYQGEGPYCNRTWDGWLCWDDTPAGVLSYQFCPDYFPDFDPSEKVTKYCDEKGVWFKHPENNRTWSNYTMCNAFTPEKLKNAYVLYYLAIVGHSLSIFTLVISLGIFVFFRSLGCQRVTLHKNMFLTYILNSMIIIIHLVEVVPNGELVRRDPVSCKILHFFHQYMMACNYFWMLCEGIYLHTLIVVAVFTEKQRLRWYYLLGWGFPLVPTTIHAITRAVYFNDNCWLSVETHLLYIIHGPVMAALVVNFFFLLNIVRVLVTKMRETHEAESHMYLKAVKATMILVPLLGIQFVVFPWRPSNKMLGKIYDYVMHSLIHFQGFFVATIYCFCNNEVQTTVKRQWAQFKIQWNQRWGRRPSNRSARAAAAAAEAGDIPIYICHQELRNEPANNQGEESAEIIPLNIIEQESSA

First: B1
Second: B2
The “EC50 (cAMP production)” value of the first is 19-fold lower: 2.36 nM for the first, 44.4 nM for the second.

Going from B3 to B4, the “EC50 (cAMP production)” value falls from 15.6 nM to 0.859 nM (18-fold).

Going from B5 to B6, the “EC50 (cAMP production)” value rises from 1.17 nM to 1.9 nM (1.6-fold).

molecular target: T2, human amylin receptor (calcitonin receptor co-expressed with receptor activity modifying protein, RAMP3) (human, UniProt P30988 25-474; O60896 24-148); assay: cell-based or functional assay
T2 sequence (looked up) 1: T1 sequence (looked up)
T2 sequence (looked up) 2: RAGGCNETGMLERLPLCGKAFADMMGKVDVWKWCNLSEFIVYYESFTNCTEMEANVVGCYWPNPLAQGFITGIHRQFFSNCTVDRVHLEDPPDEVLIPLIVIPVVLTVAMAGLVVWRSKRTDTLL

Going from B1 to B2, the “EC50 (cAMP production)” value rises from 0.2 nM to 0.341 nM (1.7-fold).

Compared with B3, B4 is 1.9-fold lower in “EC50 (cAMP production)” value: 1.06 nM for the first, 0.556 nM for the second.

Compared with B5, B6 is 2.1-fold lower in “EC50 (cAMP production)” value: 0.691 nM for the first, 0.322 nM for the second.

First: B1
Second: B2
The “Ratio (EC50 hCTR / EC50 hAMYR3)” value of the first is lower: 12 for the first, 130 for the second.

Compared with B3, B4 is lower in “Ratio (EC50 hCTR / EC50 hAMYR3)” value: 15 for the first, 2 for the second.

Compared with B5, B6 is higher in “Ratio (EC50 hCTR / EC50 hAMYR3)” value: 2 for the first, 6 for the second.
